The values that follow come from article PMC3351107 (Cerebellum (London, England), 2009).

The data set “cross-linking” concerns the molecule itself. The data set can be described thus: cross-linking.
In data set [1] the target is T1, myo-inositol monophosphatase 1 (IMPA1), purified bovine brain (bovine, UniProt P20456 1-277).
T1 sequence (looked up): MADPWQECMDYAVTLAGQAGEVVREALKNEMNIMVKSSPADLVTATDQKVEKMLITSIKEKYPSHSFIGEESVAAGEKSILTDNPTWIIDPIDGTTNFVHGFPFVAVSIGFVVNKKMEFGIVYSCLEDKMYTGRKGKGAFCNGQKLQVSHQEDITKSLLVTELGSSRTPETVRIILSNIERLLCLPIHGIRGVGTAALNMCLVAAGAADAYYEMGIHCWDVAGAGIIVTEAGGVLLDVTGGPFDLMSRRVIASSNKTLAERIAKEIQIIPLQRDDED
The data set can be described thus: cross-linking.

B1: S100B, purified bovine brain (natural protein, UniProt P02638 1-92, looked up)
chain: MSELEKAVVALIDVFHQYSGREGDKHKLKKSELKELINNELSHFLEEIKEQEVVDKVMETLDSDGDGECDFQEFMAFVAMITTACHEFFEHE
B1: the binding result (in the data set “cross-linking”; in data set [1]) was “binds” each time.
